± gives the standard deviation.

The series in a line: protein stability index of a GFP-peptide fusion (GPS, HEK-293T) (PSI 1-6); higher = more stable. The following applies: c terminus: a fixed tail appended.
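Note: 24-mer peptide tiles fused after GFP, lentivirally expressed, FACS-sorted into six equal bins by GFP/DsRed ratio, decoded by Illumina sequencing, PSI is the read-weighted mean bin number.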

With EILNFNQYYEACRKAAKSLIKLGL [ACSBG2], the protein stability index worked out at 1.91 ± 0.39 (treatment: DMSO) and 2.92 ± 1.3 (treatment: MLN4924 1 uM, 8 h).

Turning to EKASWLGEQPQFWSKTQVLDWISY [ELF3], the protein stability index was 2.33 ± 0.3 (treatment: DMSO) and 2.16 ± 0.096 (treatment: MLN4924 1 uM, 8 h).

Consider EKDLVGLAQIAEVLEMFDLRMMVE [RHOBTB1], for which the protein stability index was determined as 2.46 ± 0.21 (treatment: DMSO) and 2.22 ± 0.38 (treatment: MLN4924 1 uM, 8 h).

In the case of EKEELLQLSIERGKVLQNKQAEIC [CCDC89], the protein stability index runs as follows: (treatment: DMSO) 4.44 ± 0.27; (treatment: MLN4924 1 uM, 8 h) 4.68 ± 0.17.

As to EKEIPVLNELPVPMVARYIRINPQ [CPXM2], the protein stability index reads like this: (treatment: DMSO) 3.16 ± 0.26; (treatment: MLN4924 1 uM, 8 h) 3.25 ± 0.18.

Regarding ELCVKLMFLHPVDYGRKAEELLWR [SMG5], the protein stability index runs as follows: (treatment: DMSO) 2.41 ± 0.7; (treatment: MLN4924 1 uM, 8 h) 2.33 ± 0.89.

As for ELHRRLDEEQQVLLSRLEEEEQDI [TRIM39], the protein stability index is, setting by setting: (treatment: DMSO) 5.426 ± 0.033; (treatment: MLN4924 1 uM, 8 h) 5.49 ± 0.17.

Turning to ELIKWRAAIVVNGHGMTPLKVAAE [FEM1B], the protein stability index by setting is: (treatment: DMSO) 2.64 ± 0.55; (treatment: MLN4924 1 uM, 8 h) 2.15 ± 0.33.

ELQEKQKNEKLISLQEQLQRFLKK [TAF7L]: the protein stability index was determined as 3.36 ± 0.33 (treatment: DMSO) and 3.39 ± 0.15 (treatment: MLN4924 1 uM, 8 h).

Consider ELQIELLRETKRKYESVLQLGRAL [ARFIP2], for which the protein stability index runs as follows: (treatment: DMSO) 2.54 ± 0.12; (treatment: MLN4924 1 uM, 8 h) 2.55 ± 0.23.

Consider ELVVIIGWAKHIPGFSTLSLADQM [ESRRG], for which the protein stability index by setting is: (treatment: DMSO) 3.19 ± 0.31; (treatment: MLN4924 1 uM, 8 h) 2.67 ± 0.77.

Consider EMKEFSSQLAGQVNVEMDAAPGVD [KRT15], for which the protein stability index reads like this: (treatment: DMSO) 5.29 ± 0.24; (treatment: MLN4924 1 uM, 8 h) 5.07 ± 0.11.

Take ENDPEWWKCKNARGQVGLVPKNYV [NCK2]: the protein stability index runs as follows: (treatment: DMSO) 3.52 ± 0.16; (treatment: MLN4924 1 uM, 8 h) 3.54 ± 0.12.

Turning to ENKENEAFEFKKPVRPVSRGCLHS [CDC25A], the protein stability index runs as follows: (treatment: DMSO) 3.87 ± 0.7; (treatment: MLN4924 1 uM, 8 h) 3.73 ± 0.52.

ENPVGTFHCSMSPGNLEKNRYGDV [PTPN9] yielded a protein stability index (treatment: DMSO) of 3.44 ± 0.35 and a protein stability index (treatment: MLN4924 1 uM, 8 h) of 3.4 ± 0.38.

In the case of EPLAEGAAAEFSSLLRRIKGKLFT [SLC35F2], the protein stability index reads like this: (treatment: DMSO) 2.55 ± 0.33; (treatment: MLN4924 1 uM, 8 h) 2.65 ± 0.096.

EQIKTRTEELIVQTKQVYDAVGML [NLN] gave a protein stability index (treatment: DMSO) of 3.68 ± 0.25 and a protein stability index (treatment: MLN4924 1 uM, 8 h) of 3.88 ± 0.41.

As to EQKNHTFPRLNRNKYMVTDGAAYI [PLD5], the protein stability index came to 2.85 ± 0.078 (treatment: DMSO) and 3.19 ± 0.24 (treatment: MLN4924 1 uM, 8 h).

On to ERDRDPCGGSGGGGGGGGGGGGCS [LURAP1L], for which the protein stability index stood at 5.37 ± 0.35 (treatment: DMSO) and 5.4 ± 0.24 (treatment: MLN4924 1 uM, 8 h).

With ERFSSAPCLLGSRVFSQGSHAWEV [TRIM35], the protein stability index is, setting by setting: (treatment: DMSO) 2.51 ± 0.36; (treatment: MLN4924 1 uM, 8 h) 2.46 ± 0.2.

Regarding ESDSRKVAEETPDGAPALCPSPEA [PRKX], the protein stability index stood at 5.69 ± 0.17 (treatment: DMSO) and 5.58 ± 0.3 (treatment: MLN4924 1 uM, 8 h).

In the case of ESGKEEGMKIDLIDGKGRGVIATK [KMT5A], the protein stability index was determined as 5.12 ± 0.41 (treatment: DMSO) and 5.39 ± 0.39 (treatment: MLN4924 1 uM, 8 h).

ESSNDFGPYEGGGPVAGLDDSGGP [ZBTB22]: the protein stability index is, setting by setting: (treatment: DMSO) 5.03 ± 0.42; (treatment: MLN4924 1 uM, 8 h) 5 ± 0.13.

For the sequence ESSPSHDRSRTVSASSTGDLPKAK [SRPK2], the protein stability index amounted to 5.16 ± 0.33 (treatment: DMSO) and 5.22 ± 0.16 (treatment: MLN4924 1 uM, 8 h).

Regarding ETFSTLKNWVKELRQHGPPNIVVA [RAB22A], the protein stability index (treatment: DMSO) amounted to 2.4 ± 0.69 and the protein stability index (treatment: MLN4924 1 uM, 8 h) turned out to be 2.36 ± 0.14.

Consider ETNLLLAQKQRLERALDATEVPFS [TEKT4], for which the protein stability index was determined as 4.1 ± 0.29 (treatment: DMSO) and 4.21 ± 0.25 (treatment: MLN4924 1 uM, 8 h).

Regarding ETPMAPVPLGPLGETYCEEHGEKI [TRIM15], the protein stability index by setting is: (treatment: DMSO) 5.39 ± 0.2; (treatment: MLN4924 1 uM, 8 h) 5.38 ± 0.12.

ETYIHLLAMKIKVGSDDLERIEAR [PSD2]: the protein stability index turned out to be 2.26 ± 0.13 (treatment: DMSO) and 2.5 ± 0.44 (treatment: MLN4924 1 uM, 8 h).

The sequence EVKGTLEGDVCGVEPPGPGDTVVQ [PBXIP1] showed a protein stability index (treatment: DMSO) of 5.48 ± 0.23 and a protein stability index (treatment: MLN4924 1 uM, 8 h) of 5.37 ± 0.11.

For the origin of these results see the supplement of paper PMC10567573.
